Measured values: patent US10253089B2, “Matrix metalloproteinase cleavable protein polymers for cancer gene therapy” (The University of Utah Research Foundation, priority 2012, dated 2019)

What was measured:
[1] = Small angle neutron scattering (SANS) of SELP hydrogels; assay type: physicochemical; conditions: 12 wt %
From the text: To gain further insight into the hydrogel pore structure, network properties were examined as a function of polymer sequence by small angle neutron scattering (SANS) techniques (FIG. 9). SANS allows the examination of microstructures in the range 1-100 nm through the analysis of elastic neutron scattering. SANS analysis was used to examine the correlation between the observed macroscopic properties of SELPs (12% wt), such as equilibrium swelling and mechanical modulus, with the underlying network structure. […] SELP hydrogels conformed closely with a modified gel model of the general form I(Q)=AQ^b+(BQ^2ε^2)^2+C, which uses a power-law fit for the high q scattering combined with the Debye-Bueche model at low to intermediate Q (above Q=0.02 Å^−1). The combined Debye-Bueche/power law model provided a nearly complete fit over the full q-range of collected data. […] The calculated correlation length (Table 3) depicts a trend in the observation that are in the order SELP-415K>SELP-815K>SELP-47K. […] The silk blocks of SELP-415K are separated by elastin blocks twice the length as −47K, and as these cross-linking blocks move further apart, the elastin-like nature of the SELP becomes more pronounced and the storage modulus decreases. SELP-815K presents an interesting case where the silk blocks are doubled in length over SELP-47K while also having a long elastin block as in SELP415K.

[2] = One week acute toxicity study (weight, CBC); assay type: in vivo, CD-1 immunocompetent mice
Protocol: Mice were anesthetized and maintained under anesthesia with 3% isofluorane in oxygen. After shaving and cleaning the injection site with 60% isopropanol, mice were subcutaneously injected in the right flank with 50 μl of solution using a 250 μl Hamilton syringe with a 26G needle. […] The injection site was gently clamped for 10 seconds to prevent leakage, after which mice were returned to their cages. For consistency, the day of viral injection was defined as day 0.
For treatment groups, a suspension of 1 mg GCV (Sigma Aldrich, St. Louis, Mo.) per ml of 0.9% physiological saline was prepared and sterilized through a 0.22 μm filter. Each day, animal weights were recorded, injection sites cleaned with 60% isopropanol, and mice injected i.p. with 1 mg/ml GCV suspension through a 26G needle sufficient for a total dose of 25 mg/kg body weight. Average dosing volume for these studies was approximately 0.6 ml. Mice were injected daily for the first four weeks of the 12 week recovery study, and for the entirety of the 1, 2, and 4 week studies.
Upon completion of each study, mice were individually euthanized using 70% CO2 in oxygen, with euthanasia confirmed by lack of breathing for 10 seconds. […] Injection sites were dissected for visual observation of local inflammation. Complete blood counts (CBCs) were performed within 2 hours of blood sample collection using a CBC-DIFF (Heska, Loveland, Colo.) blood count analyzer. Following CBC, samples were centrifuged at 10,000 rpm for 2.5 minutes and rapidly frozen at −80° C. for future analysis.
Safety studies were conducted in immunocompetent mice. In order to examine the ability of SELP to reduce the acute toxicity of the HSV-Tk/GCV system, 4-6 week old female CD-1 immunocompetent mice were injected subcutaneously with the conditions listed in Table 5. Weight was monitored daily for one week and daily injections of 25 mg/kg, intraperitoneal GCV were given to some groups as indicated in Table 5.
At the conclusion of the one week study, mice were sacrificed, and blood and organs were collected for analysis. […] These assessments were performed using a complete blood count.

[3] = molecular target: T1, MMP-2 (Homo sapiens, UniProt P08253); experiment: Hydrogel protein loss in the presence of MMP-2; assay type: biochemical; conditions: 10 wt % hydrogel, MMP-2 10 nM, two weeks
T1 sequence (P08253 110-660): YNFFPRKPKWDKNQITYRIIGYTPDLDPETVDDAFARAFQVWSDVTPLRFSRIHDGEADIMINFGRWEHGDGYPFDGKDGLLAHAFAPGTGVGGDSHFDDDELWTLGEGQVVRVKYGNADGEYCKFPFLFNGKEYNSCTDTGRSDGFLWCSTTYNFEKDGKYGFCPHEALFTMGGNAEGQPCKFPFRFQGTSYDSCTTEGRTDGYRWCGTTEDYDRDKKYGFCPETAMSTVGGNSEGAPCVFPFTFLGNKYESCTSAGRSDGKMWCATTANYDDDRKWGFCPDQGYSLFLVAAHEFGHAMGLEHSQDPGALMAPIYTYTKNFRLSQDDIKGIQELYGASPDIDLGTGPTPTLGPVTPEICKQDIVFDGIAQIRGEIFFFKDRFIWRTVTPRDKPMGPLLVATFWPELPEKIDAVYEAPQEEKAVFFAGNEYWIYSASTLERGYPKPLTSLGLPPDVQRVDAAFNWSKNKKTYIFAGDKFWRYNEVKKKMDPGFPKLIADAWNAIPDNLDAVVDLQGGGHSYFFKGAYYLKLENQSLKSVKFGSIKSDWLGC
Protocol: The properties of hydrogels formed from SELPs are strongly dependent on the shear applied to liquid solutions of polymer prior to gelation. SELPs solubilized in phosphate buffered saline were loaded into a 1 ml luer-lock syringe connected at the hub to another 1 ml luer-lock syringe via two 27G needles, joined by a section of 0.0155″ HPLC tubing. The SELP solution was passed through this device at maximum hand pressure for five full bidirectional cycles, at which point it was used for studies.
Hydrogels were characterized for their sensitivity to MMP degradation in the context of protein loss from the gel, changes in mechanical properties, and release of model 100 nm fluorescent nanoparticles. […] Syringes were sealed with Parafilm and allowed to gel upright overnight at 37° C. […]
Protein loss was quantified using a Modified Lowry Assay Kit, and using known SELP solutions for the standard curve instead of the supplied bovine serum albumin, as SELP contains few Lowry-reactive amino acids. The mechanical properties of SELPs were evaluated in cyclic compression at 1 Hz and 1% strain, with ˜10 grams of preloading applied for 10 minutes to eliminate stress relaxation. Stress was measured using a 2 lb load cell. Release was quantified by measuring the fluorescence of release samples with an excitation/emission of 260/515. […]

B1: SELP815K: silk-elastin-like protein polymer, longer silk units, fifteen elastin units, lysine elastin unit; monomer repeated 6 times (SEQ ID NO. 21) (protein)
chain: MDPVVLQRRDWENPGVTQLNRLAAHPPFASDPMGAGSGAGAGSGAGAGSGVGVPGVGVPGVGVPGVGVPGKGVPGVGVPGVGVPGVGVPGVGVPGVGVPGVGVPGVGVPGVGVPGVGVPGVGVPGVGVPGAGAGSGAGAGSGAGAGSGAGAGSGAGAGSGAGAGAGSGAGAGSGAGAGSGVGVPGVGVPGVGVPGVGVPGKGVPGVGVPGVGVPGVGVPGVGVPGVGVPGVGVPGVGVPGVGVPGVGVPGVGVPGVGVPGAGAGSGAGAGSGAGAGSGAGAGSGAGAGSGAGAGAGSGAGAGSGAGAGSGVGVPGVGVPGVGVPGVGVPGKGVPGVGVPGVGVPGVGVPGVGVPGVGVPGVGVPGVGVPGVGVPGVGVPGVGVPGVGVPGAGAGSGAGAGSGAGAGSGAGAGSGAGAGSGAGAGAGSGAGAGSGAGAGSGVGVPGVGVPGVGVPGVGVPGKGVPGVGVPGVGVPGVGVPGVGVPGVGVPGVGVPGVGVPGVGVPGVGVPGVGVPGVGVPGAGAGSGAGAGSGAGAGSGAGAGSGAGAGSGAGAGAGSGAGAGSGAGAGSGVGVPGVGVPGVGVPGVGVPGKGVPGVGVPGVGVPGVGVPGVGVPGVGVPGVGVPGVGVPGVGVPGVGVPGVGVPGVGVPGAGAGSGAGAGSGAGAGSGAGAGSGAGAGSGAGAGAGSGAGAGSGAGAGSGVGVPGVGVPGVGVPGVGVPGKGVPGVGVPGVGVPGVGVPGVGVPGVGVPGVGVPGVGVPGVGVPGVGVPGVGVPGVGVPGAGAGSGAGAGSGAGAGSGAGAGSGAGAGSGAGAMDPGRYQDLRSHHHHHH
modifications: monomer repeated 6 times; Hybrid of Homo sapein and Bombyx mori
Debye-Bueche mid-Q slope [1]: ~−3 | Power-law low Q slope [1]: 3.26 | GRA [2]: 1.125 ± 0.39 | LYM [2]: 4.475 ± 0.87 | MON [2]: 0.7 ± 0.27 | WBC [2]: 6.3 ± 0.79 | higher protein loss compared to control [3]: statistically insignificant
